# Data: the RNAGym collection of RNA variant scans (doi:10.7554/elife.80360)
# B1: CPEB3 Ribozyme (parent)
# chain: GGGGGCCACAGCAGAAGCGUUCACGUCGCGGCCCCUGUCAGAUUCUGGUGAAUCUGCGAAUUCUGCUGU
# Variants of: B1
# Experiment: self-cleavage, relative activity (ratio to wild type); higher = more cleavage; co-transcriptional
row,Variant,self-cleavage
1,G11A U46C,0.91
2,G11A U46A,0.932
3,G11A U46G,0.93
4,G11A C29G,0.148
5,G11A C29U,0.0741
6,G11A C29A,0.26
7,G11C U49A,0.882
8,G11A U20G,0.154
9,G11A U20C,0.213
10,G11A G48C,0.951
11,G11A G48U,0.885
12,G11A C24G,0.16
13,G11A C24U,0.259
14,G11A C24A,0.345
15,G11C U26G,0.417
16,G11C U26A,0.387
17,G11C U26C,0.729
18,G11A U61G,0.392
19,G11A U61A,0.452
20,G11A U61C,0.268
21,G11U G28C,0.116
22,G11U G28U,0.192
23,G11C G30A,0.522
24,G11C G30C,0.435

row,Variant,self-cleavage
1,G11A A13U,0.186
2,G11C G48A,0.921
3,G11C G48C,0.963
4,G11A G65A,0.759
5,G11A G65U,0.781
6,G11U C29G,0.149
7,G11U C29U,0.142
8,G11U C29A,0.202
9,G11U C63G,0.231
10,G11U C63U,0.498
11,G11A A60U,0.323
12,G11A A60G,0.434
13,G11C U21G,0.199
14,G11C U21C,0.431
15,G11A C12A,0.74
16,G11A C12G,0.788
17,G11C G37C,0.103
18,G11C G37A,0.217
19,G11A G47A,0.942
20,G11A G47U,0.937
21,G11A G47C,0.895
22,G11U G48C,0.878
23,G11A G31U,0.599
24,G11A G31C,0.155

row,Variant,self-cleavage
1,G11A U53G,0.622
2,G11A U53C,0.352
3,G11C G68A,0.907
4,G11C G68C,0.823
5,G11U C34U,0.915
6,G11U C34G,0.635
7,G11U G37U,0.165
8,G11U G37A,0.145
9,G11U G37C,0.213
10,G11C C27U,0.0897
11,G11C C27A,0.177
12,G11C A42U,0.41
13,G11C A42G,0.51
14,G11U G56C,0.367
15,G11U G56A,0.701
16,G11U G56U,0.404
17,G11U C24G,0.177
18,G11U C24U,0.422
19,G11A C54U,0.886
20,G11A C54G,0.426
21,G11A C54A,0.368
22,G11U A51U,0.785
23,G11U A51G,0.921
24,G11U A16U,0.48

row,Variant,self-cleavage
1,G11U A16C,0.101
2,G11A U36G,0.131
3,G11A U36A,0.211
4,G11A U36C,0.727
5,G11A A42U,0.548
6,G11A A42G,0.586
7,G11A A42C,0.544
8,G11A G50U,0.927
9,G11A G50C,0.715
10,G11C U46C,0.787
11,G11C U46A,0.866
12,G11C U46G,0.849
13,G11A G37C,0.196
14,G11A G37A,0.188
15,G11A U26A,0.676
16,G11U C35U,0.815
17,G11U C35G,0.341
18,G11A C45G,0.859
19,G11A C35A,0.242
20,G11A C35U,0.861
21,G11C U64A,0.385
22,G11C U64C,0.424
23,G11U A23U,0.945
24,G11U A23C,0.685

row,Variant,self-cleavage
1,G11U A23G,0.651
2,G11A G56A,0.708
3,G11A G56U,0.475
4,G11U C33A,0.765
5,G11U C33G,0.619
6,G11C C57G,0.284
7,G11C C57U,0.238
8,A10U U69A,1.02
9,G11A C66U,0.967
10,G11A A52U,0.837
11,G11A A52C,0.865
12,G11U C39A,0.36
13,G11U C39U,0.527
14,G11U C39G,0.536
15,G11A G30A,0.663
16,G11A G30C,0.672
17,G11A G30U,0.32
18,G11A U44C,0.528
19,G11A U44G,0.76
20,G11U C66U,0.955
21,G11U C66A,0.918
22,G11U C66G,0.949
23,G11C A40G,0.643
24,G11C A40C,0.179

row,Variant,self-cleavage
1,G11C A40U,0.26
2,G11C G31A,0.693
3,G11C U67G,0.93
4,G11C U67C,0.92
5,G11C U67A,0.897
6,G11C G47C,0.896
7,G11C G47U,0.916
8,G11C G47A,0.907
9,G11A A51G,0.865
10,G11A A51U,0.847
11,G11C U44A,0.636
12,G11A C32G,0.293
13,G11A C32A,0.816
14,G11C G17C,0.143
15,G11C G17U,0.144
16,G11U A42G,0.476
17,G11U A42C,0.342
18,G11C G25A,0.149
19,G11C G25C,0.177
20,G11C G56A,0.564
21,G11C G56U,0.359
22,G11C U53C,0.28
23,G11C U53A,0.381
24,G11C C54U,0.618

row,Variant,self-cleavage
1,G11C C54G,0.261
2,G11U G17A,0.141
3,G11U G17C,0.129
4,G11U G17U,0.148
5,G11C G58A,0.82
6,G11U U20A,0.119
7,G11U U20C,0.131
8,G11U U20G,0.121
9,G11U G47C,0.954
10,G11U G47A,0.897
11,G11U G58A,0.846
12,G11U G58U,0.891
13,G11U G58C,0.857
14,G11U A52G,0.901
15,G11A A15U,0.574
16,G11A A15G,0.807
17,G11C G41A,0.209
18,G11C G19C,0.145
19,G11A C33G,0.733
20,G11A C33U,0.908
21,G11U C45U,0.893
22,G11U C45A,0.732
23,G11U C27U,0.148
